Laboratory results taken from article doi:10.1101/2024.06.02.596995.

Columns and labels:
[1] = biological target: Armitage KEE-Flag (D. melanogaster) (UniProt Q6J5K9); test: co-IP
[2] = biological target: Armitage ΔN34-Flag (D. melanogaster) (UniProt Q6J5K9); test: co-IP

Question: How did the binding efficiency relative to WT Armi [1] turn out when “Daedalus (Daed), endogenous in OSCs (natural protein)” was run?
Answer: Its binding efficiency relative to WT Armi is 34%.

Question: What about the binding efficiency relative to WT Armi [2] of the same substance?
Answer: Its binding efficiency relative to WT Armi is 20%.
